Data taken from PMC7862611, “Ribosome-bound Get4/5 facilitates the capture of tail-anchored proteins by Sgt2 in yeast” (Nature Communications, 2021).

T1: RNCs carrying the most N-terminal 100 residues of Pgk1 as a nascent chain (yeast (S. cerevisiae) | S. cerevisiae) (UniProt P00560)
T1 sequence (P00560 1-100, looked up): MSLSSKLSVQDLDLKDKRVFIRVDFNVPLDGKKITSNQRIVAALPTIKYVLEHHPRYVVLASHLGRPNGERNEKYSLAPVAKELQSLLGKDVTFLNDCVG


Key:
[1] = target: T1, RNCs carrying the most N-terminal 100 residues of Pgk1 as a nascent chain (yeast (S. cerevisiae) | S. cerevisiae); test: pull-down; FLAG-tag pull-down of RNCs with N-terminally FLAG-tagged nascent chains made in yeast translation extracts (wild type, Δsrp54, without Get4/5, without Sgt2 or Get3; with or without 2 µM purified His6Get4/Get5), RNCs first pelleted through a sucrose cushion; immunoblot
[2] = target: released Sec22 (yeast (S. cerevisiae)) (UniProt P22214); test: pull-down; FLAG-tag pull-down of radiolabelled ribosome-released FLAG-Sec22 from yeast translation reactions (wild type, Δget3 with or without 2 µM His6Get4/Get5, Δget3Δget4Δget5); immunoblot
80S ribosome = 80S ribosome (S. cerevisiae); test: fluorescence polarisation; fluorescence anisotropy; Get4/5-Atto390 held at 20 nM, 80S ribosomes added to 20–500 nM; 20 °C; 50 mM Tris/HCl pH 7.5, 70 mM NH4Cl, 30 mM KCl, 7 mM MgCl2; one site saturation binding fit; conditions: both partners purified

Sequence of released Sec22 (yeast (S. cerevisiae)) (P22214 whole entry): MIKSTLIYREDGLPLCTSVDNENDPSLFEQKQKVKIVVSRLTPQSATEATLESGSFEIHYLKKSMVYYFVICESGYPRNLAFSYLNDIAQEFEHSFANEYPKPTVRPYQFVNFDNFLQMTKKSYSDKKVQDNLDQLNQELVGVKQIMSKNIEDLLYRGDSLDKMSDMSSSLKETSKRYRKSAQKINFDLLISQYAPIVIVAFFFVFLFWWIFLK

Molecule	percent associated with RNCs [1]	further results
Get5 (from UniProt Q12285 1-212) (natural protein)	2%	–
Get4 (from UniProt Q12125 1-312) (natural protein)	2%	–
Sgt2 (from UniProt Q12118 1-346) (natural protein)	–	fold change of binding with added m3 against no addition, Δget3 extract [2]: > 2 fold
signal recognition particle (SRP), followed by its 54 kDa subunit Srp54 (natural protein) MVLADLGKRINSAVNNAISNTQDDFTTSVDVMLKGIVTALLESDVNIALVSKLRNNIRSQLLSENRSEKSTTNAQTKKLIQKTVFDELCKLVTCEGSEEKAFVPKKRKTNIIMFVGLQGSGKTTSCTKLAVYYSKRGFKVGLVCADTFRAGAFDQLKQNAIRARIPFYGSYTETDPAKVAEEGINKFKKEKFDIIIVDTSGRHHQEEELFQEMIEISNVIKPNQTIMVLDASIGQAAEQQSKAFKESSDFGAIILTKMDGHARGGGAISAVAATNTPIIFIGTGEHIHDLEKFSPKSFISKLLGIGDIESLFEQLQTVSNKEDAKATMENIQKGKFTLLDFKKQMQTIMKMGPLSNIAQMIPGMSNMMNQVGEEETSQKMKKMVYVLDSMTKEELESDGRMFIEEPTRMVRVAKGSGTSVFEVEMILMQQQMMARMAQTATQQQPGAPGANARMPGMPNMPGMPNMPGMPNMPGMPKVTPQMMQQAQQKLKQNPGLMQNMMNMFGGGMGGGMGGGMPDMNEMMKMMQDPQMQQMAKQFGMG	0.3%	–
Get4/5-Atto390 (complex, yeast (S. cerevisiae), ATTO-390-maleimide on the surface-exposed cysteine of the two cysteines present in Get4 (C177, 255), Get4, yeast; Get5, yeast; also called Get4/His6Get5; Get4_(2)Get5_(2) complex; copies: 2 + 2) chain 1: MVPAESNAVQAKLAKTLQRFENKIKAGDYYEAHQTLRTIANRYVRSKSYEHAIELISQGALSFLKAKQGGSGTDLIFYLLEVYDLAEVKVDDISVARLVRLIAELDPSEPNLKDVITGMNNWSIKFSEYKFGDPYLHNTIGSKLLEGDFVYEAERYFMLGTHDSMIKYVDLLWDWLCQVDDIEDSTVAEFFSRLVFNYLFISNISFAHESKDIFLERFIEKFHPKYEKIDKNGYEIVFFEDYSDLNFLQLLLITCQTKDKSYFLNLKNHYLDFSQAYKSELEFLGQEYFNIVAPKQTNFLQDMMSGFLGGSK chain 2: MSTSASGPEHEFVSKFLTLATLTEPKLPKSYTKPLKDVTNLGVPLPTLKYKYKQNRAKKLKLHQDQQGQDNAAVHLTLKKIQAPKFSIEHDFSPSDTILQIKQHLISEEKASHISEIKLLLKGKVLHDNLFLSDLKVTPANSTITVMIKPNPTISKEPEAEKSTNSPAPAPPQELTVPWDDIEALLKNNFENDQAAVRQVMERLQKGWSLAK	–	Kd (80S ribosome): 110 nM
